Data set [1] addresses T1, MsGyrB47 (D348A) (M. smegmatis, UniProt A0QNE0 1-427, D348A).
T1 sequence: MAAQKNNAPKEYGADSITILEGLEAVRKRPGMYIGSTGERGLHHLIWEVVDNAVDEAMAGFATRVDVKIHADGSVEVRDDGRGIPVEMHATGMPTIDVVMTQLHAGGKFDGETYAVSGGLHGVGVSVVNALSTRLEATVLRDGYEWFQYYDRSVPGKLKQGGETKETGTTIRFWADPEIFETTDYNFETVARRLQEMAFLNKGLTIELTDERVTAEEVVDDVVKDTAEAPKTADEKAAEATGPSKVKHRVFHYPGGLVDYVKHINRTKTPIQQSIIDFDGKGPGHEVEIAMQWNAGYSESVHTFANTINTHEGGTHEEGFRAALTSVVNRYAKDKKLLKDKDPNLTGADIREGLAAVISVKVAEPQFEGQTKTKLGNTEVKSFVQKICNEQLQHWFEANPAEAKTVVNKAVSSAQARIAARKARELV
Briefly: cell-based or functional assay.

Data set [2] concerns the molecule itself. Briefly: crystal structure.

Substitutions are numbered along the chain they refer to.

B1: Mycobacterium smegmatis MfpA (natural protein, M. smegmatis)
chain: MRIGANGDETVWADEEFAGRDFRDEDLSRIRTERVVFTECDFSGVDLSESEHHGSAFRNCTFRRSTIWHSTFTNCSLLGSVFTECRIRPVTFVECDFTLAVLGGCDLRAVDLSDCRLREVSLVGADLRKAVLRRADLTGSRVQDARLEEADLRGTRVDPTFWTTAKVRGAKIDIEQALAYAAAHGLAVHGG
On to B1, for which the “stimulation of the ATPase activity by MsMfpA, compared with wild-type MsGyrB47” value in data set [1] was ~2 fold decrease.

B2: MsGyrB47, the ATPase (N-terminal) domain of M. smegmatis GyrB (domain or fragment)
chain: T1 sequence with A348D
For the molecule B2, the “stoichiometry N” value in data set [2] was 2.

What is called stoichiometry N is a count of units in the complex or per binding partner.

The record behind these values is PMC7980463 (Proceedings of the National Academy of Sciences of the …, 2021).
